Experimental data published in the domain aggregation screens of Martell et al. (2025).

assay: soluble fraction after stress (log2 fold change); higher = more stays soluble; pooled small domains, quantitative proteomics; conditions: stress: 50 degC
In short: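 The measure of aggregation propensity here is the base-two logarithm of the fold change in the soluble amount of each protein after stress. A higher value means more of that protein stays in solution. Stress was applied at 50°C to pooled libraries of small protein domains, read out by high-throughput quantitative proteomics.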

Row | Sequence | soluble fraction (log2)
1 | HMIESLKGILHKKDPTIAIIDVGGVRLSVNITLSTYEKLEEINSSIELLTYFNVREDAMELYG | -0.157
2 | HMSIQREIILEVIKNNRTHPTAEEIYILVTKKEPKISRSTVYRNINILVEKGIIEKITIATGPDRYDY | -1.4
3 | HMIGVNMEKSTVEKFANELNLPIDLLLKQLESAGIKKTSGAEELLEADKSALLNYLQIEHGA | 0.085
4 | HMQRSVNYSELHEIKERVFDALYSSPMSMPDLLAWLKGDEEHTISVIRLMQDNGDIEMGEDGRLAVV | -0.275
5 | HMRSLATFEEEKIALRFWNYLQSEGIKSTLEEEGPRDWVIWVIDEEKIPSATQSLEKFNLNPDDPAFSN | -0.438
6 | HMDYNSYGLTERELELVDYVLKGYSRKEMAEASGLKVNTIGSYMKKIYRKLNIHNRTELKERFI | -0.37
7 | HMDRQIQITVAENEAGQRLDAFLAAKIPDMSRSYIQKLIEDGLILVNGQSTKGKVKTYSGMNIEVYMPE | 0.166
8 | HMIELEGVISSVLAGTMFKVKLRGNGHEVLAHISGKMRKKFIRLVIGDAVKIEMSPYDMDKARIVYRI | -0.00875
9 | HMATSNGEFVIPDGGLQFEELERSLLMQALKKSGGSQTGAARLLGLSRDTLRYRLEKFGIDAAAVRE | -0.165
10 | HMRNMTDYLTIVRAVYGGLSQRQAATTYHVSRNTVSLLIRHAKNQGWLTVEDLSRADAAAFSPA | -0.517
11 | HMVMRHTVEHDAELLAVLRLMYPASSSTKLRKMLTQGRVLVNDDVVHRAKHGVASGDTVDVIVRQRAE | -1.03
12 | HMTFDWAAYEISEKEIRVMSLVAEGFSNKEIAQELFLSEGTVRNYISNILEKLGLRDRTQLAVHYLKAV | -1.28
13 | HMKNLDILTPKEIEVLNLVAKGYSNSKISKELDIAEVTVKKHIGSMFQKLDVKDRLSLALIL | -0.118
14 | HMRVDDITDTILNVLKEQGGFISVTDKSSPETINKLFGVSKKTYKKAIGAIYRKKLIIIEDDGIRLNS | -1.84
15 | HMLISDENMLRDLVQAVLDENPKSVSDYKSGKTKAFGFLVGQTMKAVKGQADPMLVNKILTELLN | -0.0365
16 | HMVTTLLIINVAGKVKNPGVYQLPPGSRVVDALEAAGQQLKGVDISDINLARVLVDGEQILIGSN | -1.86
17 | HMPSHALFWTLLKEVPGYDPHYKDVIKEGIVHEHSGGRTTSLSEMYTKYPREYSLMIEAMKG | -0.487
18 | HMVGNEEALRAIVESIIAQNTTEVASFREGKEGLIGWFLGQVMRQTGGKADPKLARQILLELLKQ | -0.242
19 | HMKTPRKVFTVLIRNTEYDVYDIDGKEHQGYNDTPKTWWLYHSERLPEGMIPPIDSDSWKPYSVGT | -0.831
20 | HMSVADNALSRQAIESRIALFIQNEDPNHPRSDADIQKELAQAGVVISRRAITKYRNHLHIPSASLRRR | -1.03
21 | HMQGQADFTQGIANFTQYPVGSRITVFTLEGRRVAVVEIGKDGTAQLDMRNKPAGVYIVNTGKQSFKWLK | -1.26
22 | HMSTANISIEQAKEIALNHANLTSNQVIFSRTELDYDNGIQKYEVEFYYNNREYSYEINANTGDILGYEQ | -0.148
23 | HMSNGEWQQGSDGRWWYKFSDGTYPKNKVETIGGKKYGFDSEGWMLANTTKEFSGTTYSFGADGVATS | 0.158
24 | HMKFLYQQVYQDIKDKITSAQYQFGDLLPSEREIGEEYHVDRTTVRKAFSLLVDEGLVEKRAGKGSVVIS | -0.594
25 | HMEDINAVLAENLRRLRESRRLSLDAVARLTGVSKSMLGQIERGEVNPTVSTMWKIAGGLKVNFTALFRRE | -1.47
26 | HMASDEVPGAGFKWREDVLLRVMEANGIDKSNRDDFVRHAVNFDDDDNNYLKKAEIEAAAAAWVESQSPA | -0.291
27 | HMTYKPAADFKPSDTSSLKEGMKVEHPKFGFGTVMKMEEVGTERKARINFADFGEKTLLLSFAKLKIHEN | 0.0858
28 | HMGLTYEQILTDVQRFVTQNHADTLSNEGNPEEARKLLKDYILQYVQNRSYHVDGQTTEELVDSLYED | -0.195

Row | Sequence | soluble fraction (log2)
29 | HMGPRKAGSEATRQKILDAAEILFAERGFHSVSVRDITTEAGVDVALINYHFGSKQLLFETVFMRR | -0.331
30 | HMAHLSPNDAARLVGVSRPLLNQILDEGRITFFETAGGHRKIKLAAVLAYIKERDEVAAQLAAART | -0.746
31 | HMEKYIVNQEEQGKRLDIYVVNKSSELTRTAVQRLIEQEHILVNGRKQKASYKVLEGDIITIERV | 0.573
32 | HMNKNQGVTTTNLNFRKSASTSSLVLYTIPKNTTLDILDKLPSGWYKVKYKGLTGYVSGSYV | -1.37
33 | HMSKMVEMSQEKSREKVARVKIEIQKMLDRKERVTVSGLERATGFSNSFFYRNEEVNQAVKEAQLKQ | 0.0985
34 | HMELEWENYSLAGEIKTTVMLYQNRRNGLPEEAKQKADALMKQLKQAVIENDAQKVEKIDDALTALLFE | -0.15
35 | HMGGGEYTVAKGDTLWKIAAQTLGSPTRYAEIYNLNKDVIEETARGRGKRDSSNGHWLFPGTALKIPGT | 0.355
36 | HMNSRQPEEEALFELLAKNPYSDEQLEEIRIAIGSGISYKDVLVIADIKNTAKQMKKLRLKFTKDTG | -0.122
37 | HMRDPVDKDNYLGDWDKNKTYPAGYVMTFGDKNYLALQEVPAGTKPGATDPDPFWVLDTGKTLKD | -0.0888
38 | HMNVNALIGQEGIVIKEINSGSNKIGQVKISGDTWSAVTTNDFTNAIPVGSNVKILKIDGVNLIVEPVY | -0.0724
39 | HMVEVPKVAGMSTAQGVSELEQKGFVVNRTESYDDTVPKGNIISQTPEGGTKVPSGSAVTIKISQGAE | -0.157
40 | HMPYIVNHIHLKSEDPKITADWFVKAFNFEIVSDVVRHFGDRFIVTKAEGGMTINISGVRDGEEL | -0.0655
41 | HMASISDRIRLLRAESHMTQEEFGRIFGISKPTVSFYEHGKSVPNDQIKTAIARYFGVSVDYLLGVTD | -1.89
42 | HMKIETVENPLLERTEISALFDSKSGSLTRKEAIDLISKKARIDSSTVYAIKLSNSSGSTRIIGLFY | 0.0692
43 | HMDLSLQTFNELKTELTNNKITIDQFSEKINEFDITSDIFEISRELFLDDTLSLEDYLVVIENVLIN | -0.45
44 | HMVKEVKVPDVEGLTTEEAIKELKKYGLAYTTKSEENTDIEEGKVIRTEPKKGSTKVKGSTVTIIESSG | -0.169
45 | HMIELTTDYKKRVVEALVSARENYSGSDSDFARKWSIDKTVYSRLKKGYQEGLLSVGKYIELGMELNVSSR | -1.34
46 | HMTNYSFIVNENFNNKRIDQVVANHYPKISRTKVNKIIKNNLLKLNGSTFNDPSAKVKLGDQIEFENL | 0.389
47 | HMDSYADVLSDYRGKYKTNTISGLKGLRDKIREDMLAAADSLDFEKAALLRDEMNDLNKKIELKEKT | 0.505
48 | HMEPESTMIEISETLTNERLDRYLATKLPNVSRGGIQRLLREGNILVNGKKAKPTQHPVAGQKIEITWPNP | 0.0857
49 | HMRVTEVSYDKFLDMLSGGQVTVVELQENERELYFKAADENGAERIYSTGVFPDADLQKRLSESGVTF | -0.025
50 | HMHLIPRESTYEIDGRRFVVDSVNLDFGKVSLQDITFRNATGFPIFRSESIEFMRRLVEISEAQRIAEL | -0.00889
51 | HMELGYTPNNLRSVRAKYGLTQKQVAEITGLKTWHPVNRWEAPVEAAYHADMPHTKWLKLLDELSSR | -0.993
52 | HMQYDSYTVEEPAKLLDWLLAHLRQSRTKIKATLQGHGIKVNGKTVTQFDYPLEPGMKIRVSLTK | 0.159
53 | HMKSTELSIIEALRVLGLKHGASQDSIKKSYRRLVKQHHPDLGGSADSFRKVNEAYQLLIMN | -0.425
54 | HMNKYNNIEDLKEEDFENISEKYQVPVSFVKSKLDDLINWHEKNPQKNHYKNYLSALRDWVKRDSLKIKL | 0.0328
55 | HMVQVRQPAGAGDLFAKGRLHLSTGTIHTVKPLEVDLPKGRLTVVTGVSGSGKTTLILESLLPALAAAAA | 0.482
